Results published in patent US20130079278A1 (Novo Nordisk, published 2013).
*1 amine or outer side, *2 acyl side, *3 side chain or, on linkers, in order; H or OH if unused. Where no end group is shown, it is not given here. Side-chain parts run from the residue outwards. The star is where a group is joined. C18 diacid = O=C(O)CCCCCCCCCCCCCCCCC(=O)*; C16 diacid = O=C(O)CCCCCCCCCCCCCCC(=O)*; γGlu = O=C(O)[C@H](CCC(=O)[*:2])N[*:1]; AEEA = NCCOCCOCC(=O)O

Molecular target: glucagon receptor (human, UniProt P47871 26-477)
Assay: cell-based or functional assay

Chain of glucagon receptor (P47871 26-477): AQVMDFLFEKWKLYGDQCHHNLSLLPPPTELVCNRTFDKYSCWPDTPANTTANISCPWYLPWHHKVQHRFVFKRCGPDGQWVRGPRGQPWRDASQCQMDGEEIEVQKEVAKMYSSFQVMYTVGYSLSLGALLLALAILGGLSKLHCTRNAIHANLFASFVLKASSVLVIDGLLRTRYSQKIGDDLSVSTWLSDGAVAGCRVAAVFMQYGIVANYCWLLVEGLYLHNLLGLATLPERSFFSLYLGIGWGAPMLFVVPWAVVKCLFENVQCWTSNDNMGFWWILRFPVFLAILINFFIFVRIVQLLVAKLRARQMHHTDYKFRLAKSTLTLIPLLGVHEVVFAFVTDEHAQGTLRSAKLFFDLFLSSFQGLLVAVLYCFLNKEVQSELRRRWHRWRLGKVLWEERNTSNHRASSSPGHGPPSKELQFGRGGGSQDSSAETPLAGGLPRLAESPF

| Binder | Assay (I) Glucagon [EC50] [nM] |
| --- | --- |
| HSQGTFTSDYSRYLDVRRAQDFVK([γGlu-γGlu-AEEA-AEEA-γGlu-C16 diacid])WLLST | 0.026 |
| HSQGTFTSDYSRYLDARRAQDFVK([γGlu-γGlu-γGlu-γGlu-C18 diacid])WLLST | 0.062 |
| HSQGTFTSDYSKYLDVRRAQDFVK([γGlu-γGlu-AEEA-AEEA-γGlu-C16 diacid])WLLST | 0.009 |
